The results in this text go back to patent US20240368668A1, “SUBSTRATES AND BIOMARKERS OF ADAMTS7” (The Broad Institute, Inc., priority 2021, published 2024).

The test concerns the target T1, mouse ADAMTS7 (Mus musculus, UniProt Q68SA9).
T1 construct: Full-length mouse Adamts7 1-1857 (Uniprot Q68SA9, WT or E373Q catalytic mutant); expressed in transfected cells; host or cells: Human Coronary Artery Smooth Muscle Cells (HCA-SMC, Lonza), adenovirus 50 MOI
T1 sequence (Q68SA9 221-1657): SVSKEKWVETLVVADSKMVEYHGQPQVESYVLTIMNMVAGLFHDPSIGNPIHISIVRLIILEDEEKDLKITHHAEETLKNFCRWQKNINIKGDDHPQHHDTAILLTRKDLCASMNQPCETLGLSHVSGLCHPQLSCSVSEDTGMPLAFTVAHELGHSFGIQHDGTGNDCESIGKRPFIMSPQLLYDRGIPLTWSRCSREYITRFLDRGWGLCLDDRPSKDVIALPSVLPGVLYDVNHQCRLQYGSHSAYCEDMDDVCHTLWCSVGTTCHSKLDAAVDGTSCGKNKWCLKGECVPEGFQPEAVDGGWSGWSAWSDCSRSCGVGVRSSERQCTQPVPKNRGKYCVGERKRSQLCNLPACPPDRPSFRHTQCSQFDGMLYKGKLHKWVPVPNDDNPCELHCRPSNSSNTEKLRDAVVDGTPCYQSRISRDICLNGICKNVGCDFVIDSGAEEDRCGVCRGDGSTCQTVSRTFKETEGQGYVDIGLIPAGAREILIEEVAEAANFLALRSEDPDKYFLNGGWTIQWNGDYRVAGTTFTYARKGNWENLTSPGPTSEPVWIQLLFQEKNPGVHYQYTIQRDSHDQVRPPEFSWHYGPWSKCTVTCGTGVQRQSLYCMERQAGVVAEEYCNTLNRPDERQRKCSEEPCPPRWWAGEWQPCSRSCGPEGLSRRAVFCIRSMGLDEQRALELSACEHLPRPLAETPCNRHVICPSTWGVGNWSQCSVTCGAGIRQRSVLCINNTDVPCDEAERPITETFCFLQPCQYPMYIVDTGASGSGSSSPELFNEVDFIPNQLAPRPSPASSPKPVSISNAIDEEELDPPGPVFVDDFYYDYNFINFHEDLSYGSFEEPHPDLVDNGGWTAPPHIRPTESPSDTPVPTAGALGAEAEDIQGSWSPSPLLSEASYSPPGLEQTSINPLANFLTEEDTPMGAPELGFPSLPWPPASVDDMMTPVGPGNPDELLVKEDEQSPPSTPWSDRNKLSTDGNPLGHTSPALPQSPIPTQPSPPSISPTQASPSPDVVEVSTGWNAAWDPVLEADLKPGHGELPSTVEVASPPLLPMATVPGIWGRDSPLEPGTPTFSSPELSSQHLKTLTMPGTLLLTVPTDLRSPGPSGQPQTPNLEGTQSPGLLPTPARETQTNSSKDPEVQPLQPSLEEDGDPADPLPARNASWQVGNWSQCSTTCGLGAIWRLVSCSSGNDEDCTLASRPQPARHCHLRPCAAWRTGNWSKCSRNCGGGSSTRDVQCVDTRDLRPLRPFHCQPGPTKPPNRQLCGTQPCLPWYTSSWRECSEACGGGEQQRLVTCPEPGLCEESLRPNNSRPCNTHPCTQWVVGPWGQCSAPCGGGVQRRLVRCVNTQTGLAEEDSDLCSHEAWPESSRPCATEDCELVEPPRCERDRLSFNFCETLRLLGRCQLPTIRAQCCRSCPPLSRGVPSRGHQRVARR
Nature of the test: TMT10 TAILS N-terminomics, HUVEC experiment (process replicates, trypsin/AspN digest). It is filed as cell-based, human. Particulars: HUVEC TAILS HC; log fold change of N-terminal peptide, Ad-mADAMTS7 WT over Luc. Summed up:
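Full-length mouse ADAMTS7 (WT or E373Q mutant, C-terminal 3xFLAG) or luciferase was transduced via adenovirus, 50 MOI, into HCA-SMC (SMC1, SMC2) or HUVEC. SMC1: pooled media, technical triplicates 400 ug; SMC2: process triplicates 300 ug; HUVEC: process triplicates 200 ug, bFGF2 10 ng/ml.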
As to “COL18A1_1505 (LQPPVVQLHDSNPYPR; listed as Homo sapiens)”, the logFC.mWT.over.Luc worked out at 3.05.
As for “LTBP2_79 (VAGLQPVER; listed as Homo sapiens)”, the figure is 1.13; as for “LTBP2_250 (SAAGEGTLAR; listed as Homo sapiens)”, 1.84.
To “LTBP2_502 (LVENSVETRPPPWLPASPGHSLW; listed as Homo sapiens)” belongs 2.47; to “LTBP3_208 (FLVPLGPGQISA; listed as Homo sapiens)”, 1.54; to “MAP4_815 (AVASTGPSSR; listed as Homo sapiens)”, 2.87.
Take “MAP4_816 (VASTGPSSR; listed as Homo sapiens)”: the logFC.mWT.over.Luc worked out at 2.13.
The substance “NID1_360 (FHQQHPQVI; listed as Homo sapiens)” registered a logFC.mWT.over.Luc of 1.48.
To “NID2_291 (HSSVPLGR; listed as Homo sapiens)” belongs 2.80; to “NUCB1_317 (FLASTQR; listed as Homo sapiens)”, 2.71.
As for “NUCB1_389 (LQQAVLHMEQR; listed as Homo sapiens)”, the figure is 1.32.
To “SERBP1_56 (QAAAQTNSNAAGKQLR; listed as Homo sapiens)” belongs 1.23.
“SPOCK1_27 (LAGGAGPNHGNFL; listed as Homo sapiens)” displayed a logFC.mWT.over.Luc of 0.90.
As for “SRGN_59 (LLPGESNKIPR; listed as Homo sapiens)”, the figure is 1.04.
As for “THBS2_290 (LSENLKR; listed as Homo sapiens)”, the figure is 5.05.
